Measurements reported in patent US20160193299A1, “MODIFIED NUCLEOSIDE, NUCLEOTIDE, AND NUCLEIC ACID COMPOSITIONS” (Moderna Therapeutics, Inc., priority 2011, published 2016).

Tests used:
HEK293A = assay: Example 44 signal sequence exchange study, secreted G-CSF ELISA; assay type: cell-based, human; details: 293A, 250 ng modified mRNA, supernatant after 24 hrs
Description: (§1) These variants included the G-CSF constructs encoding either the wild-type N terminal secretory signal peptide sequence ([…]; SEQ ID NO: 21), no secretory signal peptide sequence, or secretory signal peptide sequences taken from other mRNAs. These included sequences where the wild type GCSF signal peptide sequence was replaced with the signal peptide sequence of either: human α-1-anti trypsin (AAT) ([…]; SEQ ID NO: 22), human Factor IX (FIX) ([…]; SEQ ID NO: 23), human Prolactin (Prolac) ([…]; SEQ ID NO: 24), or human Albumin (Alb) ([…]; SEQ ID NO: 25).
(§2) 250 ng of modified mRNA encoding each G-CSF variant was transfected into HEK293A (293A in the table), mouse myoblast (MM in the table) (C2C12, CRL-1772, ATCC) and rat myoblast (RM in the table) (L6 line, CRL-1458, ATCC) cell lines in a 24 well plate using 1 ul of Lipofectamine 2000 (Life Technologies), each well containing 300,000 cells. […] The data shown in Table 68 reveal that cells transfected with G-CSF mmRNA encoding the Albumin signal peptide secrete at least 12 fold more G-CSF protein than its wild type counterpart.

mouse myoblast (C2C12) = assay: as above; assay type: cell-based; details: MM, 250 ng modified mRNA, supernatant after 24 hrs
Description: as §1, §2

rat myoblast (L6 line) = assay: as above; assay type: cell-based; details: RM, 250 ng modified mRNA, supernatant after 24 hrs
Description: as §1, §2

[1] = tested on: Human primary foreskin fibroblasts (BJ fibroblasts); assay: Innate immune response transcripts in BJ fibroblasts, single transfection (qPCR); assay type: cell-based; details: 250 ng, 18 hours
Description: The cells were harvested after 18 hours, the total RNA was isolated and DNASE® treated using the RNeasy micro kit (catalog #74004) following the manufacturer's protocol. 100 ng of total RNA was used for cDNA synthesis using High Capacity cDNA Reverse Transcription kit (catalog #4368814) following the manufacturer's protocol. The cDNA was then analyzed for the expression of innate immune response genes by quantitative real time PCR using SybrGreen in a Biorad CFX 384 instrument following manufacturer's protocol. […] In the table, the panel of standard metrics includes: RIG-I is retinoic acid inducible gene 1, IL6 is interleukin-6, OAS-1 is oligoadenylate synthetase 1, IFNb is interferon-beta, AIM2 is absent in melanoma-2, IFIT-1 is interferon-induced protein with tetratricopeptide repeats 1, PKR is protein kinase R, TNFa is tumor necrosis factor alpha and IFNa is interferon alpha.

[2] = tested on: Human primary foreskin fibroblasts (BJ fibroblasts); assay: Innate immune response in BJ fibroblasts, repeat transfection: cytokine response; assay type: cell-based
Female BALB/C mice = assay: In vivo detection of innate immune response: human G-CSF and mouse IFN-alpha in serum after I.M. injection; details: for PC Ratio: Protein:Cytokine ratio, G-CSF / IFN-alpha in mouse serum; for G-CSF protein: human G-CSF in mouse serum, 200 ug/mouse mRNA (R848 75 ug) in 5% sucrose; for G-CSF protein / IFN-alpha expression: I.M., 8 hours after dosing; for IFN-alpha expression: mouse IFN-alpha in serum, 200 ug/mouse mRNA (R848 75 ug)
Description: Blood is collected at 8 hours after dosing and using ELISA the protein levels of G-CSF and interferon-alpha (IFN-alpha) is determined by ELISA and are shown in Table 81.

[3] = tested on: female Sprague Dawley rats; assay: In vivo delivery of modified RNA: G-CSF protein in rat serum (I.M.); details: I.M. 400 ug in 100 ul, 5% sucrose, 8 hours after injection
Description: Protein production of modified mRNA was evaluated by delivering modified G-CSF mRNA or modified Factor IX mRNA to female Sprague Dawley rats (n=6). […] Blood was collected 8 hours after injection and the G-CSF protein level in serum was measured by ELISA.

mice = assay: In vivo cytokine expression study (serum IFN-alpha); details: mouse serum; I.M. 200 ug mRNA; after 8 hours
Description: After 8 hours serum was collected from the mice and analyzed for interferon-alpha (IFN-alpha) expression.

[4] = Stability of modified RNA on storage (gel electrophoresis); assay type: physicochemical; details: gel electrophoresis
Description: Stability experiments were conducted to obtain a better understanding of storage conditions to retain the integrity of modified RNA. […] After the mRNA had been stored for 0 hours, 2 hours, 6 hours, 24 hours, 48 hours, 5 days and 14 days, the mRNA was analyzed by gel electrophoresis using a Bio-Rad EXPERION′ system. The modified, unmodified and lipoplexed G-CSF mRNA was also stored in RNASTABLE® (Biomatrica, Inc. San Diego, Calif.) at 40° C. or water at −80° C. or 40° C. for 35 days before being analyzed by gel electrophoresis.
mRNA samples stored at 4° C., 25° C. and 37° C. were stored in 1× TE buffer or the formulation buffer (150 mM sodium chloride, 2 mM calcium chloride, 2 mM phosphate, 0.5 mM EDTA at a pH of 6.5). The mRNA stored at 4° C. was stable to at least 60 days in both the TE and formulation buffer. At 25° C. the mRNA in formulation buffer was stable out to 14 days and the TE buffer was stable out to at least 6 days. Storage of mRNA in the formulation buffer at 37° C. was stable to 6 days compared to the TE buffer which was stable only until 4 days.

HEK293 cells = assay: In vitro expression of VEGF modified mRNA (ELISA); assay type: cell-based
[5] = 250 ng transfected daily for 5 days, 6 hours

Albumin
secreted G-CSF protein (HEK293A): 122050 pg/mL | secreted G-CSF protein (mouse myoblast (C2C12)): 81050 pg/mL | secreted G-CSF protein (rat myoblast (L6 line)): 173300 pg/mL

α-1-anti trypsin
secreted G-CSF protein (HEK293A): 9950 pg/mL | secreted G-CSF protein (mouse myoblast (C2C12)): 5000 pg/mL | secreted G-CSF protein (rat myoblast (L6 line)): 8475 pg/mL

Natural Luciferase: natural luciferase mRNA SEQ ID NO: 16, Cap1
AIM2 transcript level [1]: 0.251 fold-induction relative to HPRT | IFIT-1 transcript level [1]: 151.218 fold-induction relative to HPRT | IFNa transcript level [1]: 0.067 fold-induction relative to HPRT | IFNb transcript level [1]: 11.404 fold-induction relative to HPRT | IL6 transcript level [1]: 20.6 fold-induction relative to HPRT | OAS-1 transcript level [1]: 20.778 fold-induction relative to HPRT | PKR transcript level [1]: 16.001 fold-induction relative to HPRT | RIG-I transcript level [1]: 71.5 fold-induction relative to HPRT | TNFa transcript level [1]: 0.526 fold-induction relative to HPRT

Prolactin
secreted G-CSF protein (HEK293A): 7875 pg/mL | secreted G-CSF protein (mouse myoblast (C2C12)): 1525 pg/mL | secreted G-CSF protein (rat myoblast (L6 line)): 9800 pg/mL

B1: G-CSF Gen 1: G-CSF mRNA SEQ ID NO: 6, Cap1, fully modified with 5-methylcytosine and pseudouridine (nucleic acid, listed as Homo sapiens)
chain: GGGAAAUAAGAGAGAAAAGAAGAGUAAGAAGAAAUAUAAGAGCCACCAUGGCCGGUCCCGCGACCCAAAGCCCCAUGAAACUUAUGGCCCUGCAGUUGCUGCUUUGGCACUCGGCCCUCUGGACAGUCCAAGAAGCGACUCCUCUCGGACCUGCCUCAUCGUUGCCGCAGUCAUUCCUUUUGAAGUGUCUGGAGCAGGUGCGAAAGAUUCAGGGCGAUGGAGCCGCACUCCAAGAGAAGCUCUGCGCGACAUACAAACUUUGCCAUCCCGAGGAGCUCGUACUGCUCGGGCACAGCUUGGGGAUUCCCUGGGCUCCUCUCUCGUCCUGUCCGUCGCAGGCUUUGCAGUUGGCAGGGUGCCUUUCCCAGCUCCACUCCGGUUUGUUCUUGUAUCAGGGACUGCUGCAAGCCCUUGAGGGAAUCUCGCCAGAAUUGGGCCCGACGCUGGACACGUUGCAGCUCGACGUGGCGGAUUUCGCAACAACCAUCUGGCAGCAGAUGGAGGAACUGGGGAUGGCACCCGCGCUGCAGCCCACGCAGGGGGCAAUGCCGGCCUUUGCGUCCGCGUUUCAGCGCAGGGCGGGUGGAGUCCUCGUAGCGAGCCACCUUCAAUCAUUUUUGGAAGUCUCGUACCGGGUGCUGAGACAUCUUGCGCAGCCGUGAAGCGCUGCCUUCUGCGGGGCUUGCCUUCUGGCCAUGCCCUUCUUCUCUCCCUUGCACCUGUACCUCUUGGUCUUUGAAUAAAGCCUGAGUAGGAAG
modifications: Cap1, 5mC/pseudouridine modified
IFN-beta [2, 5]: 0 pg/mL | IL-6 ([2]; daily transfection, 6 hours): 3396 pg/mL | IFN-beta ([2]; daily transfection, Day 1): 38 pg/mL | IL-6 ([2]; daily transfection, Day 1): 3870 pg/mL | IFN-beta ([2]; daily transfection, Day 2): 1125 pg/mL | IL-6 ([2]; daily transfection, Day 2): 16341 pg/mL | IFN-beta ([2]; daily transfection, Day 3): 100 pg/mL | IL-6 ([2]; daily transfection, Day 3): 25983 pg/mL | IFN-beta ([2]; daily transfection, Day 4): 75 pg/mL | IL-6 ([2]; daily transfection, Day 4): 18922 pg/mL | IFN-beta ([2]; daily transfection, Day 5): 213 pg/mL | IL-6 ([2]; daily transfection, Day 5): 15928 pg/mL | PC Ratio (Female BALB/C mice): 40 | G-CSF protein (Female BALB/C mice): 356.5 pg/mL | IFN-alpha expression (Female BALB/C mice; listed as 5mc/pU modified G-CSF mRNA): low but detectable cytokine response | IFN-alpha expression (Female BALB/C mice; listed as GCSF mRNA 5mc/pU): 8.87 pg/mL | G-CSF protein [3]: 19.37 pg/mL | IFN-alpha (mice): 8.867 pg/mL

B2: G-CSF unmodified: unmodified G-CSF mRNA SEQ ID NO: 6, Cap1 (nucleic acid, listed as Homo sapiens)
chain: B1 chain
modifications: Cap1
IFN-beta [2, 5]: 0 pg/mL | IL-6 ([2]; daily transfection, 6 hours): 3596 pg/mL | IFN-beta ([2]; daily transfection, Day 1): 1363 pg/mL | IL-6 ([2]; daily transfection, Day 1): 15207 pg/mL | IFN-beta ([2]; daily transfection, Day 2): 238 pg/mL | IL-6 ([2]; daily transfection, Day 2): 12415 pg/mL | IFN-beta ([2]; daily transfection, Day 3): 225 pg/mL | IL-6 ([2]; daily transfection, Day 3): 5017 pg/mL | IFN-beta ([2]; daily transfection, Day 4): 363 pg/mL | IL-6 ([2]; daily transfection, Day 4): 4267 pg/mL | IFN-beta ([2]; daily transfection, Day 5): 225 pg/mL | IL-6 ([2]; daily transfection, Day 5): 3094 pg/mL | PC Ratio (Female BALB/C mice): 9 | G-CSF protein (Female BALB/C mice): 605.6 pg/mL | IFN-alpha expression (Female BALB/C mice): 67.01 pg/mL | stable out to (storage time) ([4]; stored at 25 C): 48 h | stable out to (storage time) ([4]; stored at 37 C): 6 h | stable out to (storage time) ([4]; stored at 50 C): 2 h | IFN-alpha (mice): 67.012 pg/mL

B3: VEGF-A: modified mRNA VEGF-A SEQ ID NO: 19, Cap1, fully modified with 5-methylcytosine and pseudouridine, Lipofectamine2000 complexed (nucleic acid, listed as Homo sapiens)
sense: GGGAAAUAAGAGAGAAAAGAAGAGUAAGAAGAAAUAUAAGAGCCACCAUGAACUUUCUCUUGUCAUGGGUGCACUGGAGCCUUGCGCUGCUGCUGUAUCUUCAUCACGCUAAGUGGAGCCAGGCCGCACCCAUGGCGGAGGGUGGCGGACAGAAUCACCACGAAGUAGUCAAAUUCAUGGACGUGUACCAGAGGUCGUAUUGCCAUCCGAUUGAAACUCUUGUGGAUAUCUUUCAAGAAUACCCCGAUGAAAUCGAGUACAUUUUCAAACCGUCGUGUGUCCCUCUCAUGAGGUGCGGGGGAUGCUGCAAUGAUGAAGGGUUGGAGUGUGUCCCCACGGAGGAGUCGAAUAUCACAAUGCAAAUCAUGCGCAUCAAACCACAUCAGGGUCAGCAUAUUGGAGAGAUGUCCUUUCUCCAGCACAACAAAUGUGAGUGUAGACCGAAGAAGGACCGAGCCCGACAGGAAAACCCAUGCGGACCGUGCUCCGAGCGGCGCAAACACUUGUUCGUACAAGACCCCCAGACAUGCAAGUGCUCAUGUAAGAAUACCGAUUCGCGGUGUAAGGCGAGACAGCUGGAAUUGAACGAGCGCACGUGUAGGUGCGACAAGCCUAGACGGUGAGCUGCCUUCUGCGGGGCUUGCCUUCUGGCCAUGCCCUUCUUCUCUCCCUUGCACCUGUACCUCUUGGUCUUUGAAUAAAGCCUGAGUAGGAAG
modifications: Cap1, polyA, 5mC/pseudoU, Lipofectamine2000 complexed
Protein (HEK293 cells; amount transfected 2 pg): 0 pg/mL | Protein (HEK293 cells; amount transfected 10 pg): 0 pg/mL | Protein (HEK293 cells; amount transfected 39 pg): 0 pg/mL | Protein (HEK293 cells; amount transfected 156 pg): 189.6 pg/mL | Protein (HEK293 cells; amount transfected 625 pg): 2321.23 pg/mL | Protein (HEK293 cells; amount transfected 2.5 ng): 10038 pg/mL | Protein (HEK293 cells; amount transfected 10 ng): 10495 pg/mL | Protein (HEK293 cells; amount transfected 610 fg): 0 pg/mL
